Laboratory results from paper PMC11821529.

How the values were obtained:
[1] = molecular target: Myc-tagged Rhinolophus affinis ISG15 S77C (Rhinolophus affinis); test: cross-linking
[2] = molecular target: Myc-tagged wild-type Mops condylurus ISG15 (Mops condylurus); test: cross-linking

Row | stoichiometry N [1] | stoichiometry N [2] | Substance
1 | 2 | – | Myc-tagged Rhinolophus affinis ISG15 S77C (natural protein)
2 | – | 2 | Myc-tagged wild-type Mops condylurus ISG15 (natural protein)
